Measured values: paper PMC2905227 (Journal of the American Chemical Society, 2010)
Where a chain is given by its changes, count along the chain named.

Key:
Assay in all cases: competitive inhibition of enzyme activity
[1] = target: T1, wild-type E. coli ribonucleotide reductase α2 subunit (E. coli, UniProt P00452 1-761)
T1 sequence (looked up): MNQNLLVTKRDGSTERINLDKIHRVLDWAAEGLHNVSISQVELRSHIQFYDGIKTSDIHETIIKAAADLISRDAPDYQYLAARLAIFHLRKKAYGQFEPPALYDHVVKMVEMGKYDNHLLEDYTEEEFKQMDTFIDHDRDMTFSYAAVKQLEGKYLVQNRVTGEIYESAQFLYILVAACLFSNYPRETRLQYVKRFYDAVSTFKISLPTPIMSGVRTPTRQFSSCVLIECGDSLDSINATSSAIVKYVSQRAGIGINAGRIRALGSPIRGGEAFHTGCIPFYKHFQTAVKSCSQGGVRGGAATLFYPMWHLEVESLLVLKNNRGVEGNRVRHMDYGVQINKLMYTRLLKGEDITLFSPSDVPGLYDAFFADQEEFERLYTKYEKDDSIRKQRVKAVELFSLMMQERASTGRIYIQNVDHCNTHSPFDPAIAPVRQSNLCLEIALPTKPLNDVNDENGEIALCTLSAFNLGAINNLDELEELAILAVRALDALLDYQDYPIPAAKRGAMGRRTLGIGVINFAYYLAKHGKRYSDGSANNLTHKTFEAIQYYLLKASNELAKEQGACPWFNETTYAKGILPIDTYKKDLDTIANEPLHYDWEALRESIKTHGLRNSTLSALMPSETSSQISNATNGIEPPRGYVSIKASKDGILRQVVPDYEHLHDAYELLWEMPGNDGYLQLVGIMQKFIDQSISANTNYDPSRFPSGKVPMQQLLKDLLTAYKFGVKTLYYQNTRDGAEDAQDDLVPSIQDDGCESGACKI

[NO2Y730]-α2(C439S) = target: T2, [NO2Y730]-α2(C439S) (E. coli, UniProt P00452 1-761, C439S, 3-nitrotyrosine (NO2Y) in place of Y730)
T2 sequence (looked up): T1 sequence (looked up) with C439S

[NO2Y730]-α2(C439A) = target: T3, [NO2Y730]-α2(C439A) (E. coli, UniProt P00452 1-761, C439A, 3-nitrotyrosine (NO2Y) in place of Y730)
T3 sequence (looked up): T1 sequence (looked up) with C439A

binding result [1]: binds
Kd ([NO2Y730]-α2(C439S)): 1.28 ± 0.07 µM
Kd ([NO2Y730]-α2(C439A)): 2.07 ± 0.07 µM
B1: wild-type E. coli ribonucleotide reductase β2 subunit (enzyme, UniProt P69924 1-376, looked up)
chain: MAYTTFSQTKNDQLKEPMFFGQPVNVARYDQQKYDIFEKLIEKQLSFFWRPEEVDVSRDRIDYQALPEHEKHIFISNLKYQTLLDSIQGRSPNVALLPLISIPELETWVETWAFSETIHSRSYTHIIRNIVNDPSVVFDDIVTNEQIQKRAEGISSYYDELIEMTSYWHLLGEGTHTVNGKTVTVSLRELKKKLYLCLMSVNALEAIRFYVSFACSFAFAERELMEGNAKIIRLIARDEALHLTGTQHMLNLLRSGADDPEMAEIAEECKQECYDLFVQAAQQEKDWADYLFRDGSMIGLNKDILCQYVEYITNIRMQAVGLDLPFQTRSNPIPWINTWLVSDNVQVAPQEVEVSSYLVGQIDSEVDTDDLSNFQL
modifications: tyrosyl radical at Y122 (1-1.2 radicals per β2), diferric cluster
